Laboratory results as given in IntAct's records for PubMed 20371544.

B1: Muscle, skeletal receptor tyrosine-protein kinase (Mus musculus), Q61006 (parent)
chain: MRELVNIPLLQMLTLVAFSGTEKLPKAPVITTPLETVDALVEEVATFMCAVESYPQPEISWTRNKILIKLFDTRYSIRENGQLLTILSVEDSDDGIYCCIANNGVGGAVESCGALQVKMKPKITRPPINVKIIEGLKAVLPCTTMGNPKPSVSWIKGDNALRENSRIAVLESGSLRIHNVQKEDAGQYRCVAKNSLGTAYSKLVKLEVEVFARILRAPESHNVTFGSFVTLRCTAIGIPVPTISWIENGNAVSSGSIQESVKDRVIDSRLQLFITKPGLYTCIATNKHGEKFSTAKAAATVSIAEWSKSQKDSQGYCAQYRGEVCDAVLAKDALVFFNTSYRDPEDAQELLIHTAWNELKAVSPLCRPAAEALLCNHLFQECSPGVVPTPMPICREYCLAVKELFCAKEWQAMEGKAHRGLYRSGMHLLPVPECSKLPSMHRDPTACTRLPYLDYKKENITTFPSITSSRPSADIPNLPASTSSFAVSPAYSMTVIISIVSSFALFALLTIATLYCCRRRKEWKNKKRESTAVTLTTLPSELLLDRLHPNPMYQRMPLLLNPKLLSLEYPRNNIEYVRDIGEGAFGRVFQARAPGLLPYEPFTMVAVKMLKEEASADMQADFQREAALMAEFDNPNIVKLLGVCAVGKPMCLLFEYMAYGDLNEFLRSMSPHTVCSLSHSDLSTRARVSSPGPPPLSCAEQLCIARQVAAGMAYLSERKFVHRDLATRNCLVGETMVVKIADFGLSRNIYSADYYKADGNDAIPIRWMPPESIFYNRYTTESDVWAYGVVLWEIFSYGLQPYYGMAHEEVIYYVRDGNILACPENCPLELYNLMRLCWSKLPADRPSFCSIHRILQRMCERAEGTVGV
partner: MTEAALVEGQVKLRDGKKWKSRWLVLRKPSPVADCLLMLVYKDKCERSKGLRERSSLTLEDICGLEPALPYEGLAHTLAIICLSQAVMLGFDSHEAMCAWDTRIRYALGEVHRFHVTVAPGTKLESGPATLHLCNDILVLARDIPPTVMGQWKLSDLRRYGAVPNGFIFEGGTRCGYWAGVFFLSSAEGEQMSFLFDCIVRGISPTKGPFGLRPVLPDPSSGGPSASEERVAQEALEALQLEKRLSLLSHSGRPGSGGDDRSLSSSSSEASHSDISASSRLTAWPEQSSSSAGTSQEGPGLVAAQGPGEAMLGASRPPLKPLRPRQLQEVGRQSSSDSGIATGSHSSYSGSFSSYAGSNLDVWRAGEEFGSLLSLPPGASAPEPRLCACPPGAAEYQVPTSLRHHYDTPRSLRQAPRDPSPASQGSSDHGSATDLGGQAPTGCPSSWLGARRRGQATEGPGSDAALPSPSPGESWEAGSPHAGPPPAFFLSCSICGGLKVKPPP

Variants of: B1
Conditions: with dok7_mouse Dok7, Q18PE0

effect of a mutation on the interaction	Variant
decreasing interaction	M604I
disrupting interaction	A726V
